Experimental findings from publication PMC11321701, “Generation and Characterization of Novel Pan‐Cancer Anti‐uPAR Fluorescent Nanobodies as Tools for Image‐Guided Surgery” (Advanced Science, 2024) are described below.

Where a chain is given by its changes, count along the chain named. Read-outs that look alike come from different tables or passages of the source. Where only a bound is given, the exact number is not on record here.

Assay [1] has as its target T1, recombinant murine urokinase plasminogen activator receptor (MuPAR) protein (Mus musculus, UniProt P35456).
T1 construct: 'Extracellular domain' is said of the immunogen; also called murine uPAR
In words: SPR; kinetic binding parameters (ka, kd, KD) of purified Nbs toward recombinant H, M or CuPAR antigens. The following applies: both partners purified. (Surface plasmon resonance follows binding to a sensor surface in real time, without labels.)

In assay [2] the target is T2, recombinant human urokinase plasminogen activator receptor (HuPAR) protein (Homo sapiens, UniProt Q03405).
Target sequence in this assay (Q03405 23-305): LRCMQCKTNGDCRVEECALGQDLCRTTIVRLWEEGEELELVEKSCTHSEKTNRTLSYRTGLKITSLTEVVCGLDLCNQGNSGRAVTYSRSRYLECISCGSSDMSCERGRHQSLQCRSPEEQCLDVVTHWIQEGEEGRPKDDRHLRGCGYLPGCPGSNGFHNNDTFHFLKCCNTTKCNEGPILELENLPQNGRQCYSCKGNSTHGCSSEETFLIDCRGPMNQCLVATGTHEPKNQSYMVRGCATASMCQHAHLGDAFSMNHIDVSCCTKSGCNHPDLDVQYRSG
The target of assay [3] is T2, recombinant human urokinase plasminogen …. In words: SPR; kinetic binding parameters (ka, kd, KD) of purified Nbs toward recombinant H, M or CuPAR antigens. As to conditions: both partners purified.
Target sequence in this assay (Q03405 whole entry, looked up): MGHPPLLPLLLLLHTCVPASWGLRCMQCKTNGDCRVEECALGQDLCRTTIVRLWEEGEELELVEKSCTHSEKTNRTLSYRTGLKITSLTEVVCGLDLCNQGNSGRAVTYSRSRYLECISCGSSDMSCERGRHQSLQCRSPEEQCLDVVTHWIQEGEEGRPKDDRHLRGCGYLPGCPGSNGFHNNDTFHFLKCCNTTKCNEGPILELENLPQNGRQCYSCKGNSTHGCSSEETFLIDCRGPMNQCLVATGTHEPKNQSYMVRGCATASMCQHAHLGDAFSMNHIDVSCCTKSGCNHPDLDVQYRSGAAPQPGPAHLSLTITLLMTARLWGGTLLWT
The target of assay [4] is T1, recombinant murine urokinase …. The experiment in a line: ELISA; BE-ELISA: bacterial extracts of Nb clones on H, M or CuPAR protein, against uncoated control; cross-reactivity screening. As to conditions: one partner purified. For orientation: In an ELISA, binding on a coated surface is turned into a signal by an enzyme label.

By Kd is commonly meant the equilibrium constant for the complex coming apart.

T1 sequence (P35456 whole entry, looked up, the tested form may be a part): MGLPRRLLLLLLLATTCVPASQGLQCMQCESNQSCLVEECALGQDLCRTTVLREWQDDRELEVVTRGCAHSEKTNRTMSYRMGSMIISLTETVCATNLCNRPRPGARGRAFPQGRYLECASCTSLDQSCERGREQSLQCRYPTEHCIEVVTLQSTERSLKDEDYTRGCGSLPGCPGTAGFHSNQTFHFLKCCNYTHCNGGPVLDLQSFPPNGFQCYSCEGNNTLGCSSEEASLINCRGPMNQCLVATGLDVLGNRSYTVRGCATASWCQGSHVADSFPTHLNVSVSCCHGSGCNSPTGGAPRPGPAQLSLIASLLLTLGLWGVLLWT

B1: Nb 13 (VHH)
VHH: QVQLQESGGGLVQSGGSLRLSCAVSGIGFVYYAMRWWRQAPGKERELVAGITGASGNTNYAESVKDRFTISRDNASNTVYLQMNSLKPEDTAVYYCNAAPLIRFGPPKDYWGQGTQVTVSS
notes: Nb 13 is the only member of its family; Nanobody from a llama immunized with human and murine uPAR; also called lead anti-MuPAR Nanobody; source: E. coli WK6, purified from the periplasm (osmotic shock, IMAC, SEC)
Consider B1, for which, in assay [1], the Kd is less than 10 nM.

B2: 5A5 (Nb 16) (VHH)
VHH: QVQLQESGGGLVQPGGSLRLSCAISGFTLDYYGIGWFRQAPGKEREGVSCISSSDGSTYYADSVKGRFTISRDNAKNTVYLQMNSLKPEDTAVYYCATRGASCYYSGSYSLGYDYWGQGTQVTVSS
In the case of B2, the Kd in assay [2] is 3 nM.

B3: 5H2 (Nb 18) (VHH)
VHH: B2 VHH with V12A, A23T, I24A, L29S, S106T
With B3, the Kd in assay [2] worked out at 4.7 nM.

B4: Nb 15 (VHH)
VHH: B2 VHH with L11W, I24A, S106T
notes: Nanobody from a llama immunized with human and murine uPAR; The clone in bacterial extracts came before recloning into the expression vector, so its tags may differ from the purified form; also called anti-HuPAR Nb 15; lead anti-HuPAR/CuPAR Nanobody; source: E. coli WK6, purified from the periplasm (osmotic shock, IMAC, SEC); bacterial extracts for ELISA and SPR off-rate screening
Take B4: the Kd in assay [3] was less than 10 nM. The binding result in assay [4] was “no binding”.

B5: 5B7 (Nb 17) (VHH)
VHH: B2 VHH with I24V, F27S, D30E, S106T
For B5, in assay [2], the Kd stood at 2.3 nM.
